Measurements taken from the nanobody polyreactivity screen of Harvey et al. (2022).

Assay: yeast display, Sf9 membrane polyspecificity reagent, FACS + sequencing; frameworks hold sequencing errors
In short: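 Nanobodies came from a synthetic yeast display library in Saccharomyces cerevisiae BJ5465, induced with galactose for 36–48 hours and stained for 1 hour at 4 °C with 10% biotinylated, detergent-solubilized Sf9 membrane reagent. Cells were enriched on streptavidin microbeads and then FACS-sorted, with low and high (top ~1%) gates set on anti-HA fluorescence for expression and streptavidin fluorescence for reagent binding. Each polyreactivity label reflects the gate a clone came from. Genes were amplified by colony PCR, sequenced by MiSeq 2 × 250 and filtered by CDR length.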

Sequence	polyreactivity (PSR sort gate)
QVQLVESGGGLVQAGGSLRISCAASGRIFTTYAMGWYRQAPGKEREFVADITLSGSSTYYADSVKGRFTISRDNAKNTVYLQMNSLKPEDTAVYYCAARTGRYYRRYDYWGQGTQETVSS	high polyreactivity
QVQLVESGGGLVQAGGSLRISCAASGRIFVGYAMGWYRQAPGKERELVAAINRSGSSTYYADSVKGRFTISRDNAKNTVYLQMNSLKPEDTAVYYCNARSGNRYGPRYDYWGQGTQVTVSS	high polyreactivity
QVQLVESGGGLVQAGGSLRISCAASGRIFVSNAMGWYRQAPGKDRELVAAISKSGARTSYADSVKGRFTISRDNAKNTVYLQMNSLKPEDTAVYYCAAPVRWSGGGEYPNYYWGQGTQVTVSS	high polyreactivity
QVQLVESGGGLVQAGGSLRISCAASGRIFYSNTMGWYRQAPGKEREVVARIDTGGGSTYADSVKGRFTISRDNAKKSVYLEMHSLKPADTAVYYCYKKGRWRSWGSTSLVSMDYWGQGTQVTVSS	low polyreactivity
QVQLVESGGGLVQAGGSLRISCAASGRILYRYAMGRYRQAPGKERELVAAITWRGGTTYYADSVKGRFTISRDNAKNTVYLQMNSLKPEDTAVYYCNADWWRTLESDYWGQGTQVTVSS	low polyreactivity
QVQLVESGGGLVQAGGSLRISCAASGRTFECYAMGWSRQAPGKERELVAAISSGGSTYYADSVKGRFTISRDNAKNTVYLQMNSLKPEDTAVYYCNVLSQQRTARYDYWGQGTQVTVSS	low polyreactivity
QVQLVESGGGLVQAGGSLRISCAASGRTFPGNAMGCYRQAPGKERELVAAISYSGGRTYYADSVKGRFTISRDNAKNTVYLQMNSLNPEDTAVYYCNRTPYSDYVFAYDYWGQGTQVTVSS	high polyreactivity
QVQLVESGGGLVQAGGSLRISCAASGRTFQFNVMGWYRQAPGKERELVASIRSGGSTNYADSVKGRFTISRDNAKNTVYLQMNSLKPEDTAVYYCAARVASPYYRYDYWGQGTQVTVSS	low polyreactivity
QVQLVESGGGLVQAGGSLRISCAASGRTFSNYAMGWYRQAPGKERELVAAISGSGGSTRYADSVKGRFTISRDNANITVYLQMNSLKPEDTAVYYCAARGAGPLHNHYSWGQGTQVTVSS	high polyreactivity
QVQLVESGGGLVQAGGSLRISCAASGRTFYRNAMGWNSKAPGKERELVAAIRRSDGSTYYADSVKGRFTISRDNAKNTVYLQMNSLKPEDTAVYYCAAGQGSRNLYYYWGQGTQVTVSS	high polyreactivity
QVQLVESGGGLVQAGGSLRISCAASGRTIDSYAMGWYRQAPGKERELVAAISWGGGSTYYADSVKGRFTISRDNAKNTVYLQMNSLKPEDTAVYYCAARWNYTEFDYWGQGTQVTVSS	low polyreactivity
QVQLVESGGGLVQAGGSLRISCAASGRTLFGYAMGWYRQAPGKERELVAAITYGATSTYADSVKGRFTISRDNAKNTVYLQMNSLKPEDTAVYYCNAYTPTDGFDYWGQGTQVTVSS	low polyreactivity
QVQLVESGGGLVQAGGSLRISCAASGRTLGYNAMGWYRQAPGKERELVAAISWSGGSTYYADSVKGRFTISRDNAKNTVYLQMNSLNPEDTAVYYCAARNNRYPLYNYWGQGTQVTVSS	low polyreactivity
QVQLVESGGGLVQAGGSLRISCAASGRTLTSNAMGWYRQAPGKERELVASITGSSSNTYYADSVKGRFTISRDNAKNTVYLQMNSLKPEDTAVSYCAAEVGFPWWRLDEYWGQGTQVTVSS	low polyreactivity
QVQLVESGGGLVQAGGSLRISCAASGRTSHAYAMGWYRQAPGKERELVAAITRVTSTYYADSVKGRFTISRDNAKNTVYLQMNSLKPEDTAVYYCAAGKGYYRSDYWGQGTQVTVSS	low polyreactivity
QVQLVESGGGLVQAGGSLRISCAASGSIFRGNAMGWYRQAHGKERELVAAITRGVSTYYADSVKGRFTISRDNAKNTVYLQMNSLKPEDTAVYYCAKPYWWGYYSWGQGSQVTVSS	high polyreactivity
QVQLVESGGGLVQAGGSLRISCAASGSIFRGYGMGWDRQAPGKERELVAAINYSGGSTYYADSVKGRYTISRDNAKNTVYLQMNSLKPEDTAVYYCNKVYYRQRGEYYYWGQGTQVTVSS	high polyreactivity
QVQLVESGGGLVQAGGSLRISCAASGSIFTINAMGWYRQAPGKERELVARITSVDSTNYADSVKGRFTISRDNAKNNVHLQMNSLKPEDTAVYYCNATFGYPFVDYDDYWGQGTQVTVSS	low polyreactivity
QVQLVESGGGLVQAGGSLRISCAASGSIFTPNAMGWYRQAPGKERELVAAISSSSDRTYYADSVKGRFTISRDNAKNTVYLQMNSLKPEDTAVYYCNAYYRYGIQFDYWGQGTQVTVSS	high polyreactivity
QVQLVESGGGLVQAGGSLRISCAASGSIFTRYAMGWYRQAPGKERELVAAIRTSGGSTYYADSVKARFTISRDNAKNTVYFQMNSLKPEDTAVYYCARRYYKSNFYYWGQGTLVTVSS	high polyreactivity
QVQLVESGGGLVQAGGSLRISCAASGSIFYVYAMGWYRQAPGKERELVATISTGGSTYYADSVKGRFTISRDNAKNTVYLQMNSLKPEDTAVYYCNAQFTPRYWGGYDSWGQGTQVTVSS	low polyreactivity
QVQLVESGGGLVQAGGSLRISCAASGSILFGNAMGWYRQAPGKERELVAAITVSGGSTYYADSVKGRFTISRDNAKNTVYLQMNSLKPEDTAVYYCAAVSLFRDSQFDYWGQGTQVTVSS	low polyreactivity

Sequence	polyreactivity (PSR sort gate)
QVQLVESGGGLVQAGGSLRISCAASGSTFASTALGRYRLAAGKEMELVASISGSGGSTFYADSVKGRFTISRDNAKNTVYLQMNSLKPEDTEVYYCAAYKEPYYEEYGYGGQGTQVTVSS	low polyreactivity
QVQLVESGGGLVQAGGSLRISCAASGSTFFLYAMGWYRQAPGKERELVAAISTTGGSTNYADSVKGRFTISRDNAKYTFELQINSLKPEDTAVYYCAAGPSAQSIYDHWGQGTQVTVSS	low polyreactivity
QVQLVESGGGLVQAGGSLRISCAASGSTFKIYAMGWYRQAPGKERELVAAITGGGSSTYYADSVKGRFTISRDNSKNTVYLQMNSLKPEDTAVYYCAADLSGADSTGDYYYWGQGTQVTVSS	low polyreactivity
QVQLVESGGGLVQAGGSLRISCAASGSTFLINAMGWYRQAPGKERELVAAIRYSGGRTYYADSVKGRFTISRDNAKNTVYLQMNSLKPEDTAVYYCNARPYRSQIGVHYDYWGQGTQVTVSS	high polyreactivity
QVQLVESGGGLVQAGGSLRISCAASGSTFLYYAMGWYRQAPGKERELVAAISWDGGNTYYADSVKGRFTISRDNAKNTVYLQMNSLKPEDTAVYYFAAKHYGSYLYWFGSDYWGQGTQVTVSS	high polyreactivity
QVQLVESGGGLVQAGGSLRISCAASGSTFSDYDMVWYRQAPGKERELVAAISKRGGSTDYADSVKGRFTFSRDNAKITVYLQMNSLKPEDTAVYYCAKDGTHGYDYWGQGTQVTVSS	low polyreactivity
QVQLVESGGGLVQAGGSLRISCAASGSTFVSYAMGWYRQAPGKERELVATISWRGGSTYYADSVKGRFTISRDNAKNRDYLHMNSLNPEDTAVYYCAADLWHSQYYYGYEYWGQGSQVTVSS	low polyreactivity
QVQLVESGGGLVQAGGSLRISCAASGSTIGVNAMGLYRQAPGKEMELVAAISVSGGRTYYADSVKGRFTISRDYAKNTVYLQMNSLKPEDTAVYYCAATTYIWPYDYWGQGTQVNVSS	low polyreactivity
QVQLVESGGGLVQAGGSLRISCAASGSTLRSNAMGWYRQAPGKERELVASISSGGSTSYADSVKGRFPISRDNAKNTVYFQMNSLKPEDTAVLYCAADGTLTLYRYILDYWGQGTQVTVSS	low polyreactivity
QVQLVESGGGLVQAGGSLRISCAASGSTSLYYAMGWYSQAPGKEREFVAANTWSGGSTYYADSVKGRFTISRDNAKNSVYLQMNSLQPVDTAVDYWAARSYGYSAGYYWRQGTQVTVSS	high polyreactivity
QVQLVESGGGLVQAGGSLRISCAASGYIFKYAMGWYRQAPGKERELVAAISRRGGSTYYADSVKGRFTISRDNAKNTVYLQMNSLKPEDTEVYYCAARLPGYYGIGDYWGQGTQVTVSS	high polyreactivity
QVQLVESGGGLVQAGGSLRISCAATGRIFGPYTMGWYRQAPGKERELVARISRRGGSTYYADSVKGRFTISRDNAKNTVYFQMNSLKPEDTAVYYCARSQAVYDGWFAKFGYWGQGTQVTVSS	high polyreactivity
QVQLVESGGGLVQAGGSLRISCAAYGTIFSDYAMGWYKQAPGKERELVAAISSGGNTNYADSVKGRFTISRDNAKNTVYLQMNSLKPEDTAVYYCAAVYNTTYTLLPEYSDVKYYYWGQGTQVTVSS	low polyreactivity
QVQLVESGGGLVQAGGSLRISCADSGSIFRRYAMGWYRQAPGKERELVAAISIGGGSTYYADSVKGRFTISRDNAKNTVYLLMTSLKPEDTAVYYCNKVEYDGAYDYWGQGTQVTVSS	low polyreactivity
QVQLVESGGGLVQAGGSLRISCAPSGIIFGYNVMGRYRQAPGKERELVAAISGSGASTYYADSVKGRFTISRDNAKNTVYLQMNSLKPEDTAVYYCARYRGYWGRYYGVDYGYWGQGTQVTVSS	high polyreactivity
QVQLVESGGGLVQAGGSLRISCAPSGSTFPHNAMGWYRQAPGKERELVAAISSIGVRTYYADSVKGRFTISRDNAKNTVYLQMNSLKPEDTAVYYCAAEYDGPYTWVEYYYHYGYWGQGTQVTVSS	high polyreactivity
QVQLVESGGGLVQAGGSLRISCDASGSTLRGYSIGWYRQAPGKERELVAAISRRGSGTYYADSVKGRFTISRDNAKNTVYLQMNSLKPEDTAVYYCNAVNGDYEFGYWGQGTQVTVSS	high polyreactivity
QVQLVESGGGLVQAGGSLRISFAASGFTFNLYAMGWYRQAPGKERELVAAISWSGGRTYYADSVKGRFTISRDNAKNTVYLQMNSLKPEDTAVYYCNAPYWTSKSRFDYWGQGTQVTVSS	low polyreactivity
QVQLVESGGGLVQAGGSLRISSAASGRTFATYVMGWYRQAPGKERELVASITRGGSTNYADSVKGRFTISRDNAKNTVYLQMNSLKPEDTAVYYCAASFLATYDYWGLGTQVTVSS	low polyreactivity
QVQLVESGGGLVQAGGSLRISSAASGSIFGRYAMGWYRQAPGKERELVAAISSGTSTYYADSVKGRFTISRDNAKNTVYLQRNSLIPEDTAVYYCAARRYSVRSGGTGRMYYWGQGTQVTVSS	high polyreactivity
QVQLVESGGGLVQAGGSLRISSAASGSITPYYTMGWYRQAPGKERELVATITSGGNTYYADSVKGRFTISRDNAQNTVYLQLNSVKPEDTAVYYCAAEGVWGIFDYWGKGTQVTVSS	low polyreactivity
